{"source": "patent US12723075B2", "about": "“Humanized antibodies directed against KCNK9” (The Johns Hopkins University, priority 2020, dated 2026)", "key": {"[1]": {"target": "T1, human KCNK9 (Homo sapiens, UniProt Q9NPC2)", "T1 construct": "expressed in transfected cells; host or cells: HEK293 cells, stably transfected, tetracycline-inducible promoter", "T1 sequence (Q9NPC2 whole entry)": "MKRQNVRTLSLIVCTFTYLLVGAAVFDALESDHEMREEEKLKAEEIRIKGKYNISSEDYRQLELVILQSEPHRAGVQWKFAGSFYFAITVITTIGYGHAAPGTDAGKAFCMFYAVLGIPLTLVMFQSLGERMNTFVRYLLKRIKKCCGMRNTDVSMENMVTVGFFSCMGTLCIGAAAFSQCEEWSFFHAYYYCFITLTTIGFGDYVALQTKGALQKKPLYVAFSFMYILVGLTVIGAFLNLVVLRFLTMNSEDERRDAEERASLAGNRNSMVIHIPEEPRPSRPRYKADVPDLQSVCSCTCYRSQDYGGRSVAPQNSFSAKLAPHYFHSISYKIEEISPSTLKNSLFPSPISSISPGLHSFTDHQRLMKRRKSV", "test": "Flow cytometry binding to KCNK9-expressing HEK293 cells", "conditions": "for Binding affinity to human KCNK9 relative to parental murine monoclonal antibody: PE conjugate secondary antibody (FIG. 1B)", "excerpt": "An anti-KCNK9 mouse monoclonal antibody having a VH amino acid sequence of SEQ ID NO: 1 and a VL amino acid sequence of SEQ ID NO: 2 (mu-mAb) was humanized using a method based on Queen et al., Proc. Natl. Acad. Sci. USA, 86: 10029-10033 (1989). The hybridoma antibody was sequenced after amplifying the antibody variable regions by RT-PCR with degenerate primers. The variable regions were fused with the human antibody IgG1 constant regions to produce a chimeric antibody. Antigen binding of the chimeric antibody was confirmed by staining of the KCNK9-expressing cells. HEK293 cells were stably transfected with KCNK9 expression vector under the tetracycline inducible promoter. After induction, the cells were incubated with various concentrations of chimeric KCNK9 antibody for 30 minutes, followed by secondary anti-human Fc FITC conjugate. Chimeric antibody binding was analyzed by flow cytometry. High affinity binding was confirmed with an EC50 of about 0.3 μg/mL (FIG. 1A).\nAfter antibody sequence analysis and structure modeling, the murine antibody CDRs (SEQ ID NOs: 3-8) were grafted into human antibody VK3-11 and VH1-3 frameworks. Critical murine antibody framework residues that support CDR conformation were identified and introduced into the human frameworks. Five variants of the humanized VH sequences (VH1-5; SEQ ID NOs: 9-13) and three variants of the humanized VL variants (VL1-3; SEQ ID NOs: 14-16) were designed and synthesized. All of the variable regions were cloned into a human IgG1 expression vector. The VHs and VLs were cross-matched to generate 15 humanized KCNK9 antibody clones. All humanized antibodies were produced by transient transfection in 293 cells and purified by Protein A chromatography. Antigen binding of the humanized KCNK9 antibodies was characterized by immunofluorescence staining of KCNK9-expressing cells."}, "[2]": {"test_system": "KCNK9-expressing BEN lung carcinoma cells", "test": "Cell growth and viability assays (cell numbers, MTT, trypan blue exclusion)", "type": "cell-based, human", "conditions": "0.4 mg/mL (FIGS. 4A-4C)", "protocol": "The cytotoxic effect of the AF-H4L3 and AF-H5L2 monoclonal antibodies was tested on KCNK9-expressing BEN lung carcinoma cells. Equal numbers of viable BEN cells were treated with AF-H4L3, AF-H5L2, or human IgG control (0.4 mg/mL). Cells were collected at indicated days after treatment for cell growth and viability assays."}, "[3]": {"test_system": "BEN lung carcinoma xenografts", "test": "Pre-established BEN lung carcinoma xenografts in nude mice", "type": "in vivo", "conditions": "4 mg/kg b.w. twice per week, established tumors, p<0.01 (FIGS. 6A-6D)", "protocol": "Equal numbers of viable BEN cells (4×10^6 cells) were implanted into the flanks of nude mice. Humanized anti-KCNK9 monoclonal antibodies AF-H4L3, AF-H5L2, or control human IgG (4 mg/kg b.w.) were administered twice per week after tumor xenografts were established and palpable. Tumor volumes were then monitored during treatments using caliper measurements every alternate day (N=10 for each group)."}, "[4]": {"test_system": "LX22 PDX small cell lung cancer cells", "test": "ADCC Reporter Bioassay with luciferase Jurkat effector cells", "type": "cell-based, human", "conditions": "six hours at 4° C. or 37° C. (FIG. 3)", "protocol": "The capacity of the humanized KCNK9 AF-H5L2 monoclonal antibody to induce ADCC directed against LX22 PDX small cell lung cancer cells also was evaluated. ADCC assays were performed using the ADCC Reporter Bioassay Complete Kit (Promega #G7015). Human lung CA KCNK9+LX22 cells or CD20+ Raji cells (as positive control) were plated at 50,000 cells per well. On the following day, humanized afucosyl anti-KCNK9 (hu-AF-H5), hu-anti-CD20, or non-immune huIgG1 (as negative control) was added. 30 minutes later, FcγIIIa+ Jurkat effector cells expressing the vNFAT-luciferase ADCC reporter were added (300,000 cells/well). Cell mixtures were incubated for six hours at either 4° C. or 37° C. Cells were collected, solubilized, and luciferase activity was quantified as a biomarker of Jurkat cell activation."}, "[5]": {"test_system": "KCNK9-positive BT549 carcinoma cells", "test": "Cell viability, KCNK9-positive breast cancer cells", "type": "cell-based, human", "conditions": "BT549, KCNK9-positive (FIG. 5)"}, "[6]": {"test_system": "KCNK9-negative MDA-MB-231 cells", "test": "Cell viability, KCNK9-negative cells", "type": "cell-based, human", "conditions": "MDA-MB-231, KCNK9-negative (FIG. 5)"}, "[7]": {"test_system": "Human LX22 PDX-derived lung carcinoma cells", "test": "MTT cell viability in combination with PARP or CDK4/6 inhibitor", "type": "cell-based", "conditions": "72 hours", "protocol": "Inhibitors of poly-ADP ribose polymerase (PARP) and cyclin dependent kinases (CDK4/6) are FDA-approved and undergoing clinical testing for multiple solid tumors. It was investigated whether inhibiting the KCNK9 K^+ channel with huKCNK9 mAb sensitized cancer cells to these therapeutics. Human LX22 PDX-derived lung carcinoma cells were treated with the PARP inhibitor AZD2461 (100 μM)+/−huKCNK9 mAb (400 μg/ml) or with the CDK4/6 inhibitor palbociclib (0.5 μM)+/−huKCNK9 mAb (400 μg/ml) for 72 hours. Cell viability was then quantified by MTT assay. Statistical comparisons were performed by ANOVA and post-hoc Tukey test."}}}
{"molecule": "chimeric KCNK9 antibody: Murine anti-KCNK9 variable regions (SEQ ID NO: 1 and 2) fused with human antibody IgG1 constant regions (antibody, V domains shown, human IgG1 constant regions lack entries; Mus) VH: EVQLQQSGPELVKPGASVKTSCKASGYSFTGYYMYWVKQSPEKSLEWIGEINPSSGGTTYNQKFKAKATLTVDKSSSTAYMQLKSLTFEDSAVYYCARSGLRRRFYAMDYWGQGTSVTVSS VL: DIVLTQSPASLAVSLGQRATVSCRASESVDSFGTTFMHWYQQKPGQPPKLLIYRASNLESGIPARFSGSGSRTDFTLTINPVEADDVATYYCQQSNKDPPTFGGGSKLEIK", "values": [{"measurement": "EC50 of binding to KCNK9-expressing HEK293 cells", "setting": "[1]; flow cytometry, 30 minutes incubation, anti-human Fc FITC secondary", "result": "about 0.3 μg/mL"}]}
{"molecule": "H4L3: Humanized KCNK9 IgG1 antibody clone, VH SEQ ID NO: 12 and VL SEQ ID NO: 16 (antibody, V domains shown, human IgG1 constant regions) VH: QVQLVQSGAEVKKPGASVKVSCKASGYSFTGYYMYWVRQAPGQRLEWMGEINPSSGGTTYNQKFKARVTLTVDKSASTAYMELSSLRSEDTAVYYCARSGLRRRFYAMDYWGQGTLVTVSS VL: EIVLTQSPATLSLSPGERATLSCRASESVDSFGTTFMHWYQQKPGQPPRLLIYRASNLESGIPARFSGSGSRTDFTLTISSLEPEDFATYYCQQSNKDPPTFGGGTKVEIK", "values": [{"measurement": "Binding affinity to human KCNK9 relative to parental murine monoclonal antibody", "setting": "[1]", "result": "higher affinity than their parental KCNK9 murine monoclonal antibody"}]}
{"molecule": "H5L2: Humanized KCNK9 IgG1 antibody clone, VH SEQ ID NO: 13 and VL SEQ ID NO: 15 (antibody, V domains shown, human IgG1 constant regions) VH: QVQLVQSGAEVKKPGASVKVSCKASGYSFTGYYMYWVRQAPGQRLEWIGEINPSSGGTTYNQKFKARATLTVDKSASTAYMELSSLRSEDTAVYYCARSGLRRRFYAMDYWGQGTLVTVSS VL: EIVLTQSPATLSLSPGERATLSCRASESVDSFGTTFMHWYQQKPGQAPRLLIYRASNLESGIPARFSGSGSRTDFTLTISSLEPEDFAVYYCQQSNKDPPTFGGGTKVEIK", "values": [{"measurement": "Binding affinity to human KCNK9 relative to parental murine monoclonal antibody", "setting": "[1]", "result": "higher affinity than their parental KCNK9 murine monoclonal antibody"}]}
{"molecule": "AF-H4L3: Afucosyl version of H4L3 antibody generated using fut8−/− CHO cells (antibody, V domains shown) VH: QVQLVQSGAEVKKPGASVKVSCKASGYSFTGYYMYWVRQAPGQRLEWMGEINPSSGGTTYNQKFKARVTLTVDKSASTAYMELSSLRSEDTAVYYCARSGLRRRFYAMDYWGQGTLVTVSS VL: EIVLTQSPATLSLSPGERATLSCRASESVDSFGTTFMHWYQQKPGQPPRLLIYRASNLESGIPARFSGSGSRTDFTLTISSLEPEDFATYYCQQSNKDPPTFGGGTKVEIK", "values": [{"measurement": "Effect on cell growth and viability", "setting": "[2]", "result": "inhibited cell growth and viability"}, {"measurement": "Effect on tumor growth (tumor volume)", "setting": "[3]", "result": "significantly attenuated tumor growth"}]}
{"molecule": "AF-H5L2: Afucosyl version of H5L2 antibody generated using fut8−/− CHO cells (antibody, V domains shown) VH: QVQLVQSGAEVKKPGASVKVSCKASGYSFTGYYMYWVRQAPGQRLEWIGEINPSSGGTTYNQKFKARATLTVDKSASTAYMELSSLRSEDTAVYYCARSGLRRRFYAMDYWGQGTLVTVSS VL: EIVLTQSPATLSLSPGERATLSCRASESVDSFGTTFMHWYQQKPGQAPRLLIYRASNLESGIPARFSGSGSRTDFTLTISSLEPEDFAVYYCQQSNKDPPTFGGGTKVEIK", "values": [{"measurement": "ADCC induction (luciferase activity of Jurkat effector cells)", "setting": "[4]", "result": "induced ADCC that was temperature dependent"}, {"measurement": "Activity compared between the two clones, cell growth and viability", "setting": "[2]", "result": "comparatively more active"}, {"measurement": "Effect on cell growth and viability", "setting": "[2]", "result": "inhibited cell growth and viability"}, {"measurement": "Effect on cell viability", "setting": "[5]", "result": "inhibited the viability"}, {"measurement": "Effect on cell viability", "setting": "[6]", "result": "without effecting the viability"}, {"measurement": "Effect on tumor growth (tumor volume)", "setting": "[3]", "result": "significantly attenuated tumor growth"}, {"measurement": "Effect on cell toxicity induced by PARP inhibition", "setting": "[7]; 400 μg/ml mAb + AZD2461 100 μM, MTT (FIG. 7A)", "result": "substantially augmented"}, {"measurement": "Effect on cell toxicity induced by CDK4/6 inhibition", "setting": "[7]; 400 μg/ml mAb + palbociclib 0.5 μM, MTT (FIG. 7B)", "result": "substantially augmented"}]}
